Measured values taken from patent US7422861B2, “Oligonucleotide transfection screening method” (priority 2000, dated 2008).

Tested on: SKOV3 (ovarian carcinoma) cells
Assay: Apoptosis assay, annexin V and PI staining followed by FACS analysis (FIG. 1B)
Format: cell-based
Details: SKOV3 cells from the same transfections
Method: As a measure of cellular toxicity of the transfection agents, cells from the same transfections were stained with annexin V and PI, followed by FACS analysis (FIG. 1B). The fraction of cells positive for Annexin V, or for Annexin V and PI, are those in early or late stage apoptosis, respectively.
Apoptosis Assay. Following transfection with antisense oligonucleotides and various transfection agents, cells were gently removed from plates using 0.05% trypsin and 2 mM EDTA, washed in a buffer containing 10 mM Hepes pH7.2, 140 mM NaCl, 5 mM CaCl2, and stained with Propidium iodide at a final concentration of 1 μg/ml and Annexin-V-FLUOS (Roche Molecular Biochemicals). Cells were then analyzed for staining with each marker using a Becton Dickinson FACScan.

SMILES | Staining with annexin V or PI (apoptosis)
CCCCCCCCCCCCCC(=O)OCC(COP(=O)(O)OCCNCC(=O)N(CCN)CC(=O)N(CCc1ccc(OC)cc1)CC(=O)N(CCc1ccc(OC)cc1)CC(=O)N(CCN)CC(=O)N(CCc1ccc(OC)cc1)CC(=O)N(CCc1ccc(OC)cc1)CC(=O)N(CCN)CC(=O)N(CCc1ccc(OC)cc1)CC(=O)N(CCc1ccc(OC)cc1)CC(N)=O)OC(=O)CCCCCCCCCCCCC (centres unmarked) [Lipitoid 1] | negligible staining
COc1ccc(CCN(CC(N)=O)C(=O)CN(CCc2ccc(OC)cc2)C(=O)CN(CCN)C(=O)CN(CCc2ccc(OC)cc2)C(=O)CN(CCc2ccc(OC)cc2)C(=O)CN(CCN)C(=O)CN(CCc2ccc(OC)cc2)C(=O)CN(CCc2ccc(OC)cc2)C(=O)CN(CCN)C(=O)CCNC(=O)O[C@H]2CC[C@@]3(C)C(=CC[C@H]4[C@@H]5CC[C@H]([C@H](C)CCCC(C)C)[C@@]5(C)CC[C@@H]43)C2)cc1 [Cholesteroid 1] | negligible staining
